# Assay results from the supplement of paper PMC11908140.
# B1: library; numbered along this chain (parent)
# chain: MRKPRAAVGSGHRKQAASQEGRQKHAKNNSQAKPSACDGLARQPEEVVLQASVSSYHLFRDVAEVTAFRGSLLSWYDQEKRDLPWRRRAEDEMDLDRRAYAVWVSEVMLQQTQVATVINYYTGWMQKWPTLQDLASASLEEVNQLWAGLGYYSRGRRLQEGARKVVEELGGHMPRTAETLQQLLPGVGRYTAGAIASIAFGQATGVVDGNVARVLCRVRAIGADPSSTLVSQQLWGLAQQLVDPARPGDFNQAAMELGATVCTPQRPLCSQCPVESLCRARQRVEQEQLLASGSLSGSPDVEECAPNTGQCHLCLPPSEPWDQTLGVVNFPRKASRKPPREESSATCVLEQPGALGAQILLVQRPNSGLLAGLWEFPSVTWEPSEQLQRKALLQELQRWAGPLPATHLRHLGEVVHTFSHIKLTYQVYGLALEGQTPVTTVPPGARWLTQEEFHTAAVSTAMKKVFRVYQGQQPGTCMGSKRSQVSSPCSRKKPRMGQQVLDNFFRSHISTDAHSLNSAAQ
# Variants of: B1
# Test: 8OG:A repair function score (normalized; synonymous = 0, nonsense = -1) (normalized log-likelihood score); higher = more repair activity (WT-like)
# Conditions: with 8OG:A DNA repair reporter (GFP) in HEK-293 MUTYH KO cells
# In short: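 With 10 pg/ml doxycycline, MUTYH knockout HEK-293 cells carrying lentiviral MUTYH cDNA NNN codon-scan libraries were co-transfected with mCherry and an 8OG:A GFP repair reporter. Viable mCherry+ cells were sorted into GFP+ (repair) and GFP− bins at 72 h, three replicates per tile, and tile amplicons were sequenced. Per-tile Rosace fitness scores were then normalized into a repair function score anchored on synonymous and nonsense distributions. Medians were fixed at 0 for synonymous and -1 for nonsense, excluding variants under 300 counts per million at the start.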
row,Variant,8OG:A repair function score
1,MRKPRAAVGSGHRKQAASQEGRQKHAKNNSQAKPSACDGLARQPEEVVLQASVSSYHLFRDVAEVTAFRGSLLSWYDQEKRDLPWRRRAEDEMDLDRRAYAVWVSEVMLQQTQVATVINYYTGWMQKWPTLQDLASASLEEVNQLWAGLGYYSRGRRLQEGARKVVEELGGHMPRTAETLQQLLPGVGRYTAGAIASIAFGQATGVVDGNVARVLCRVRAIGADPSSTLVSQQLWGLAQQLVDPARPGDFNQAAMELGATVCTPQRPLCSQCPVESLCRARQRVEQEQLLASGSLSGSPDVEECAPNTGQCHLCLPPSEPWDQTLGVVNFPRKASRKPPREESSATCVLEQPGALGAQILLVQRPNSGLLAGLWEFPSVTWEPSEQLQRKALLQELQRWAGPLPATHLRHLGEVVHTFSHIKLTYQVYGLALEGQTPVTTVPPGARWLTQEEFHTAAVSTAMKKVFRVYQGQQPGTCMDSKRSQVSSPCSRKKPRMGQQVLDNFFRSHISTDAHSLNSAAQ [G479D],0.0194
2,MRKPRAAVGSGHRKQAASQEGRQKHAKNNSQAKPSACDGLARQPEEVVLQASVSSYHLFRDVAEVTAFRGSLLSWYDQEKRDLPWRRRAEDEMDLDRRAYAVWVSEVMLQQTQVATVINYYTGWMQKWPTLQDLASASLEEVNQLWAGLGYYSRGRRLQEGARKVVEELGGHMPRTAETLQQLLPGVGRYTAGAIASIAFGQATGVVDGNVARVLCRVRAIGADPSSTLVSQQLWGLAQQLVDPARPGDFNQAAMELGATVCTPQRPLCSQCPVESLCRARQRVEQEQLLASGSLSGSPDVEECAPNTGQCHLCLPPSEPWDQTLGVVNFPRKASRKPPREESSATCVLEQPGALGAQILLVQRPNSGLLAGLWEFPSVTWEPSEQLQRKALLQELQRWAGPLPATHLRHLGEVVHTFSHIKLTYQVYGLALEGQTPVTTVPPGARWLTQEEFHTAAVSTAMKKVFRVYQGQQPGTCMFSKRSQVSSPCSRKKPRMGQQVLDNFFRSHISTDAHSLNSAAQ [G479F],-0.00391
3,MRKPRAAVGSGHRKQAASQEGRQKHAKNNSQAKPSACDGLARQPEEVVLQASVSSYHLFRDVAEVTAFRGSLLSWYDQEKRDLPWRRRAEDEMDLDRRAYAVWVSEVMLQQTQVATVINYYTGWMQKWPTLQDLASASLEEVNQLWAGLGYYSRGRRLQEGARKVVEELGGHMPRTAETLQQLLPGVGRYTAGAIASIAFGQATGVVDGNVARVLCRVRAIGADPSSTLVSQQLWGLAQQLVDPARPGDFNQAAMELGATVCTPQRPLCSQCPVESLCRARQRVEQEQLLASGSLSGSPDVEECAPNTGQCHLCLPPSEPWDQTLGVVNFPRKASRKPPREESSATCVLEQPGALGAQILLVQRPNSGLLAGLWEFPSVTWEPSEQLQRKALLQELQRWAGPLPATHLRHLGEVVHTFSHIKLTYQVYGLALEGQTPVTTVPPGARWLTQEEFHTAAVSTAMKKVFRVYQGQQPGTCMLSKRSQVSSPCSRKKPRMGQQVLDNFFRSHISTDAHSLNSAAQ [G479L],0.00935
4,MRKPRAAVGSGHRKQAASQEGRQKHAKNNSQAKPSACDGLARQPEEVVLQASVSSYHLFRDVAEVTAFRGSLLSWYDQEKRDLPWRRRAEDEMDLDRRAYAVWVSEVMLQQTQVATVINYYTGWMQKWPTLQDLASASLEEVNQLWAGLGYYSRGRRLQEGARKVVEELGGHMPRTAETLQQLLPGVGRYTAGAIASIAFGQATGVVDGNVARVLCRVRAIGADPSSTLVSQQLWGLAQQLVDPARPGDFNQAAMELGATVCTPQRPLCSQCPVESLCRARQRVEQEQLLASGSLSGSPDVEECAPNTGQCHLCLPPSEPWDQTLGVVNFPRKASRKPPREESSATCVLEQPGALGAQILLVQRPNSGLLAGLWEFPSVTWEPSEQLQRKALLQELQRWAGPLPATHLRHLGEVVHTFSHIKLTYQVYGLALEGQTPVTTVPPGARWLTQEEFHTAAVSTAMKKVFRVYQGQQPGTCYGSKRSQVSSPCSRKKPRMGQQVLDNFFRSHISTDAHSLNSAAQ [M478Y],0.0167
5,MRKPRAAVGSGHRKQAASQEGRQKHAKNNSQAKPSACDGLARQPEEVVLQASVSSYHLFRDVAEVTAFRGSLLSWYDQEKRDLPWRRRAEDEMDLDRRAYAVWVSEVMLQQTQVATVINYYTGWMQKWPTLQDLASASLEEVNQLWAGLGYYSRGRRLQEGARKVVEELGGHMPRTAETLQQLLPGVGRYTAGAIASIAFGQATGVVDGNVARVLCRVRAIGADPSSTLVSQQLWGLAQQLVDPARPGDFNQAAMELGATVCTPQRPLCSQCPVESLCRARQRVEQEQLLASGSLSGSPDVEECAPNTGQCHLCLPPSEPWDQTLGVVNFPRKASRKPPREESSATCVLEQPGALGAQILLVQRPNSGLLAGLWEFPSVTWEPSEQLQRKALLQELQRWAGPLPATHLRHLGEVVHTFSHIKLTYQVYGLALEGQTPVTTVPPGARWLTQEEFHTAAVSTAMKKVFRVYQGQQPGTCWGSKRSQVSSPCSRKKPRMGQQVLDNFFRSHISTDAHSLNSAAQ [M478W],0.0205
6,MRKPRAAVGSGHRKQAASQEGRQKHAKNNSQAKPSACDGLARQPEEVVLQASVSSYHLFRDVAEVTAFRGSLLSWYDQEKRDLPWRRRAEDEMDLDRRAYAVWVSEVMLQQTQVATVINYYTGWMQKWPTLQDLASASLEEVNQLWAGLGYYSRGRRLQEGARKVVEELGGHMPRTAETLQQLLPGVGRYTAGAIASIAFGQATGVVDGNVARVLCRVRAIGADPSSTLVSQQLWGLAQQLVDPARPGDFNQAAMELGATVCTPQRPLCSQCPVESLCRARQRVEQEQLLASGSLSGSPDVEECAPNTGQCHLCLPPSEPWDQTLGVVNFPRKASRKPPREESSATCVLEQPGALGAQILLVQRPNSGLLAGLWEFPSVTWEPSEQLQRKALLQELQRWAGPLPATHLRHLGEVVHTFSHIKLTYQVYGLALEGQTPVTTVPPGARWLTQEEFHTAAVSTAMKKVFRVYQGQQPGTCVGSKRSQVSSPCSRKKPRMGQQVLDNFFRSHISTDAHSLNSAAQ [M478V],-0.00439
